According to publication PMC6149694, “Engineering the L-Arabinose Isomerase from Enterococcus Faecium for D-Tagatose Synthesis” (Molecules : A Journal of Synthetic Chemistry and Natural …, 2017):
“And” between values parts separate entries of the source, which are not always exact repeats. Equal values may be shown once.

Molecular target: the molecule itself
Assay: AUC; sedimentation velocity, 20 °C, 50 mM sodium phosphate buffer pH 7.0, absorbance at 285 nm, c(s) by SEDFIT; distributions shown for 0.43 g L^-1 N-His-L-AI and 0.3 g L^-1 C-His-L-AI; self-association, monomer to oligomers

B1: N-terminal His-tagged L-arabinose isomerase (L-AI) from Enterococcus faecium DBFIQ E36 (enzyme, UniProt Q3Y1E5 1-474, looked up)
chain: MLNIGEKEFWFVVGSQHLYGEEALREVKKHAQEMVDELNENGQLPYPIRLQELAVTADTITKIMKEVNYREEVAGVITWMHTFSPAKMWIRGTKLLQKPLLHLATQYNESIPWKTIDMDFMNLNQSAHGDREYGFINARLNKQNKIVVGYWKRPEIQKEIADWMDVAVAYNESFGIKVARFGDNMRNVGVTEGDKVEAQIQFGWTVDYFGIGDLVQVIDRVSDEEVDQLFEEYKELYTFDYGDYEEKTWEEHVKVQAQQEIGIRRFLEEGGYNAFTTNFEDLYGMKQLPGLAVQRLMAEGYGFAGEGDWKTAAIDRLLKIMARGKDTGFMEDYTYELASGQEAILESHMMEVDPTLAATKPRIVVSPLSMGDREDPARLVFDGKAGEGVVVSMADFGTHYKLLINEVEAFEPTTEAPNLPVARVLWKTKPNFHEGVHSWIQAGGGHHTVVSLNLTTDQIETWAKLVELETVVIR
notes: codon-optimised synthetic gene; the construct has 481 aa including the initial methionine (MW 55,036); also called N-His-L-AI; recombinant L-AI; not shown: His6, N-terminal, kept
**Q.** Which “stoichiometry N” value does the source give for B1 here?
**A.** Its value is 4 and 6.

B2: C-terminal His-tagged L-arabinose isomerase (L-AI) from Enterococcus faecium DBFIQ E36 (enzyme, UniProt Q3Y1E5 1-474, looked up)
chain: MLNIGEKEFWFVVGSQHLYGEEALREVKKHAQEMVDELNENGQLPYPIRLQELAVTADTITKIMKEVNYREEVAGVITWMHTFSPAKMWIRGTKLLQKPLLHLATQYNESIPWKTIDMDFMNLNQSAHGDREYGFINARLNKQNKIVVGYWKRPEIQKEIADWMDVAVAYNESFGIKVARFGDNMRNVGVTEGDKVEAQIQFGWTVDYFGIGDLVQVIDRVSDEEVDQLFEEYKELYTFDYGDYEEKTWEEHVKVQAQQEIGIRRFLEEGGYNAFTTNFEDLYGMKQLPGLAVQRLMAEGYGFAGEGDWKTAAIDRLLKIMARGKDTGFMEDYTYELASGQEAILESHMMEVDPTLAATKPRIVVSPLSMGDREDPARLVFDGKAGEGVVVSMADFGTHYKLLINEVEAFEPTTEAPNLPVARVLWKTKPNFHEGVHSWIQAGGGHHTVVSLNLTTDQIETWAKLVELETVVIR
notes: codon-optimised synthetic gene; the construct has 482 aa including the initial methionine (MW 55,221); also called C-His-L-AI; recombinant L-AI; not shown: His6, C-terminal, kept
**Q.** With B2 as the protein, how does the “stoichiometry N” value read?
**A.** Its value is 3 and 6.
